# Values quoted from earlier work in PMC4443854.
# Biological target: actin filaments (F-actin) (Oryctolagus cuniculus) (UniProt P68135)
substance,measurement,value
AIP1 (from UniProt O75083),Kd,2.5 µM
